In paper PMC7873233 one finds percent native-like trimers and stoichiometry N data, which are given here for 2 substances.

The target of assay [1] is 16055 SOSIP.v5.2 (HIV-1 (clade C isolate 16055)). In words: negative-stain EM; PGT145-purified protein, 20-50 ug/mL on carbon-coated Cu grids, 2% uranyl formate, 2D class averages; gp120-gp41 protomers to trimer.
In assay [2] the target is 16055 SOSIP.v8.3 (HIV-1 (clade C isolate 16055)). The description is as above.

As a reminder, the stoichiometry N is a count of units in the complex or per binding partner. In assay [1], 16055 SOSIP.v5.2 (complex) gave a percent native-like trimers of 72% and a stoichiometry N of 3.

For 16055 SOSIP.v8.3 (complex), in assay [2], the percent native-like trimers was greater than 95% and the stoichiometry N was 3.
